Here are results for two molecules from US20210079080A1 (Hoffmann-La Roche, published 2021).

For orientation: Kd means a measure of binding affinity in units of concentration. Higher therefore signals a looser complex. By EC50 (read off the curve) is commonly meant the concentration needed to bring the measured effect to its halfway point. Lower therefore signals greater potency.

In assay [1] the target is T1, VEGF-121-His (inhouse production) (human, UniProt P15692 207-395).
T1 construct: His-tagged human VEGF-A121 used in the ELISAs and (captured by an anti-His antibody) in SPR; also called hVEGF-A121; his VEGF; not shown: His tag
T1 sequence: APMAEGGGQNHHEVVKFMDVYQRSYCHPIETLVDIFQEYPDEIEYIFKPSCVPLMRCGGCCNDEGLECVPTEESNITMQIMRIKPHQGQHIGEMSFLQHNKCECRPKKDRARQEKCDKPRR
Put plainly: SPR (Biacore), hVEGF-A121 captured by anti-His antibody, Fab injected, 25° C. The protocol: (§1) The surface was regenerated by injecting 10 mM Glycine pH 1.5 for 60s. […] Rate constants were calculated using the Langmuir 1:1 binding model within the Biacore® Evaluation software.
(§2) The affinity of the antibodies was determined by SPR using the same methods as described in Example 2. All Fab fragments of antibodies of the invention as listed in table 1 and table 5 were tested.

Assay [2] has as its target T1, VEGF-121-His (inhouse production). Put plainly: SPR (Biacore), hVEGF-A121 captured by anti-His antibody, Fab injected, 37° C. Here is the method: as §1, §2
(SPR reads the build-up and loss of mass on a sensor chip optically.)

Assay [3] shares this target. Put plainly: inhibition ELISA: antibody titrated against 0.7 nM VEGF-121-His; blocked partner plate-bound biotinylated VEGF-R1; anti-His POD readout.
The target is the same in assay [4]. Kind of assay: inhibition ELISA: antibody titrated against 0.7 nM VEGF-121-His; blocked partner plate-bound biotinylated VEGF-R2; anti-His POD readout. Background: An ELISA detects its analyte on a solid surface through an enzyme-linked reagent.
A further assay concerns the target T2, human VEGF-A121 (human, UniProt P15692 207-395).
T2 sequence: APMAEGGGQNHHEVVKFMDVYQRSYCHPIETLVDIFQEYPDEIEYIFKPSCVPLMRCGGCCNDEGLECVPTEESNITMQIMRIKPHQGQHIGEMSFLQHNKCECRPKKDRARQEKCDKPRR
Kind of assay: cell-based or functional assay.

In assay [5] the target is T1, VEGF-121-His (inhouse production). Put plainly: Biacore, Fab stressed 2 w/37° C./pH 7.4. Here is the method:
(§3) Antibody samples were formulated in 20 mM His/HisCl, 140 mM NaCl, pH 6.0, and were split into three aliquots: one aliquot was re-buffered into PBS, respectively, and two aliquots were kept in the original formulation. The PBS aliquot and one His/HisCl aliquot were incubated for 2 weeks (2 w) at 40° C. (His/NaCl) or 37° C. (PBS) in 1 mg/ml, the PBS sample was incubated further for total 4 weeks (4 w). The third control aliquot sample was stored at −80° C.

The target is the same in assay [6]. Kind of assay: Biacore, Fab stressed 2 w/40° C./pH 6.0. Here is the method: as §3
Assay [7] has the same target. Put plainly: Biacore, Fab stressed 4 w/37° C./pH 7.4. The protocol: as §3
For assay [8] the target is unchanged. Kind of assay: direct ELISA on plate-coated VEGF-121-His. Here is the method:
After washing 3 times with 90 μl/well PBST-buffer (bidest water, 10×PBS Roche #11666789001+0.1% Tween® 20) blocking buffer (bidest water, 10×PBS Roche #11666789001+2% Bovine Serum Albumin Fraction V, fatty acid free, Roche, #10735078001+0.05% Tween® 20) was added 90 μl/well and incubated for 1 h at room temperature. […] After incubation for 1 h at room temperature, plates were again washed 3 times with 90 μl/well PBST-buffer. […] After washing 3 times with 90 μl A PBST-buffer, 25 μl TMB (Roche, #11 835 033 001) was added to each well. After 3 min incubation at RT, signals were detected at 370 nm/492 nm on a Tecan Safire 2 Reader.

For assay [9] the target is unchanged. Kind of assay: SPR (Biacore), hVEGF-A121 captured by anti-His antibody, Fab injected, 25° C. The protocol: as §1
(§4) The affinity of the antibodies was determined by SPR using the same methods as described in Example 2. All Fab fragments as listed in table 1 and table 2 were tested.
This is another data set of the same source.

Assay [10] has the same target. Kind of assay: SPR (Biacore), hVEGF-A121 captured by anti-His antibody, Fab injected, 37° C. Here is the method: as §1, §4
The source holds these as a separate data set.

Assay [11] has the same target. Kind of assay: inhibition ELISA: antibody titrated against 0.7 nM VEGF-121-His; blocked partner plate-bound biotinylated VEGF-R2; anti-His POD readout. The protocol:
(§5) Plates were incubated for 1 h at room temperature. […] Plates were incubated for 1 h at room temperature. […] After washing 3 times with 90 μl/well PB ST-buffer, 25 μl/well detection antibody (anti His POD, Bethyl, #A190-114P, 1:12000) in 1×OSEP was added. After incubation for 1 h at room temperature plates were washed 3 times with 90 μl PBST-buffer. 25 μl TMB (Roche, #11 835 033 001) was added to all wells simultaneously. After 10 min incubation at room temperature, signals were detected at 370 nm/492 nm on a Tecan Safire 2 Reader.
This is another data set of the same source.

The target is the same in assay [12]. Kind of assay: inhibition ELISA: antibody titrated against 0.4 nM VEGF-121-His; blocked partner plate-bound biotinylated VEGF-R2; anti-His POD readout.
For assay [13] the target is unchanged. Kind of assay: inhibition ELISA: antibody titrated against 0.7 nM VEGF-121-His; blocked partner plate-bound biotinylated VEGF-R2; anti-His POD readout. The protocol:
as §5
This is another data set of the same source.

B1: HF2-5 Fab fragment (Fab, V domains shown)
VH: EVQLVESGGGLVQPGGSLRLSCAASGFMIRSHGMQWVRQAPGKGLEYVAGISSDGSWARHSAAVEGRFTISRDDSKNTAYLQMNSLRAEDTAVYYCARDFSTGYGADSIDAWGQGTLVTVSS
VL: DIQMTQSPSSLSASVGDRVTITCSGGSDSAYGYGWYQQKPGKAPKTLIYWDDKRPSGVPSRFSGSRSGTDFTLTISSLQPEDFATYYCGAWEYSGGVGIFGQGTKVEIKR
notes: Prior art antibody disclosed in EP3006465
Regarding B1, the values for the Kd in assay [1] and in [2] were 52 pM and 109 pM, respectively. Besides, the “IC50 (read off the curve)” value in assay [3] is approximately 900 pM; in assay [4] it was approximately 700 pM.

B2: VEGF-0089 Fab fragment (Fab, V domains shown)
VH: EVQLVESGGGLVQPGGSLRLSCAASGFTFTNYAMTWVRQAPGKGLEWVSSIGNGGGIYTYYADSVKGRFTISRDNSKNTLYLQMNSLRAEDTAVYYCAKGDNLFDSWGPGTLVTVSS
VL: DIQMTQSPASLSASVGDRVTITCRASQSIYSSLNWYQQKPGKAPKLLIYASTLQSGVPSRFSGSASGTDFTLTISSLQPEDVATYYCQQYQNFPRTFGQGTKLEIKR
notes: also called antibody VEGF-0089
B2: the “IC50 in reporter gene assay (HEK293-NFAT-RE-Luc2P/KDR cells, luminescence, 25 ng/ml VEGF-A121)” value in the assay with human VEGF-A121 was found to be 590 pM. The “VEGF-binding activity after stress (relative active concentration, normalized to unstressed aliquot)” value in [5] came to 102; in [6] it was 101; in assay [7], 101. Further, the concentration giving a half-maximal response (EC50 (read off the curve)) in assay [8] is approximately 200 pM. Moreover, the equilibrium dissociation constant (Kd) in assay [9] turned out to be 134 pM; in assay [10], 99 pM; in [1], 143 pM; in [2], 110 pM. Also, the “IC50 (read off the curve)” value in assay [11] was approximately 10 ng/mL; in assay [12], approximately 200 pM; in [13], 1000 to 2000 pM.
